Experimental data from patent publication US20260274948A1 (AUTOLUS, published 2026).

Molecular target: T1, TRBC2 (T-cell receptor beta constant region 2) (human, UniProt A0A5B9 1-129, limits assumed)
T1 construct: also called TCR beta-constant region 2
Test: ELISA

T1 sequence (A0A5B9 1-129 limits assumed): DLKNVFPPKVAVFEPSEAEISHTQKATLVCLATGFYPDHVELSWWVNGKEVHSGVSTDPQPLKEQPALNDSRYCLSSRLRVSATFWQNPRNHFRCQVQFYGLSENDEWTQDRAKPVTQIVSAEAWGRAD

binding result | Binder
no binding | Jovi Hum 8 (antibody, V domains shown, H-AF 1 carries no back-mutation (Q3, V20, M48, R71, T73), i.e. the plain H-AF062256 graft; also called H-AF 1; H-AF1, 3aaz) VH: QVQLVQSGAEVKKPGASVKVSCKASGYTFTGYVMHWVRQAPGQGLEWMGFINPYNDDIQSNERFRGRVTMTRDTSISTAYMELSRLRSDDTAVYYCARGAGYNFDGAYRFFDFWGQGTMVTVSS VL: DIVMTQSPLSLPVTPGEPASISCRSSQRLVHSNGNTYLHWYLQKPGQSPRLLIYRVSNRFPGVPDRFSGSGSGTDFTLKISRVEAEDVGVYYCSQSTHVPYTFGQGTKLEIK
no binding | Jovi Hum 20 (antibody, V domains shown, also called H-AF 6) VH: QVQLVQSGAEVKKPGASVKVSCKASGYTFTGYVMHWVRQAPGQGLEWIGFINPYNDDIQSNERFRGRVTMTRDKSISTAYMELSRLRSDDTAVYYCARGAGYNFDGAYRFFDFWGQGTMVTVSS VL: DIVMTQSPLSLPVTPGEPASISCRSSQRLVHSNGNTYLHWYLQKPGQSPRLLIYRVSNRFPGVPDRFSGSGSGTDFTLKISRVEAEDVGVYYCSQSTHVPYTFGQGTKLEIK
no binding | Jovi Hum 19 (antibody, V domains shown, also called H-AF 5) VH: QVQLVQSGAEVKKPGASVKVSCKASGYTFTGYVMHWVRQAPGQGLEWIGFINPYNDDIQSNERFRGRVTMTRDTSISTAYMELSRLRSDDTAVYYCARGAGYNFDGAYRFFDFWGQGTMVTVSS VL: DIVMTQSPLSLPVTPGEPASISCRSSQRLVHSNGNTYLHWYLQKPGQSPRLLIYRVSNRFPGVPDRFSGSGSGTDFTLKISRVEAEDVGVYYCSQSTHVPYTFGQGTKLEIK
no binding | Jovi Hum 26 (antibody, V domains shown, also called H-AF 12) VH: QVQLVQSGAEVKKPGASVKMSCKASGYTFTGYVMHWVRQAPGQGLEWMGFINPYNDDIQSNERFRGRVTMTSDKSISTAYMELSRLRSDDTAVYYCARGAGYNFDGAYRFFDFWGQGTMVTVSS VL: DIVMTQSPLSLPVTPGEPASISCRSSQRLVHSNGNTYLHWYLQKPGQSPRLLIYRVSNRFPGVPDRFSGSGSGTDFTLKISRVEAEDVGVYYCSQSTHVPYTFGQGTKLEIK
no binding | Jovi Hum 16 (antibody, V domains shown, also called H-AF 2) VH: QVQLVQSGAEVKKPGASVKVSCKASGYTFTGYVMHWVRQAPGQGLEWMGFINPYNDDIQSNERFRGRVTMTRDKSISTAYMELSRLRSDDTAVYYCARGAGYNFDGAYRFFDFWGQGTMVTVSS VL: DIVMTQSPLSLPVTPGEPASISCRSSQRLVHSNGNTYLHWYLQKPGQSPRLLIYRVSNRFPGVPDRFSGSGSGTDFTLKISRVEAEDVGVYYCSQSTHVPYTFGQGTKLEIK
no binding | Jovi Hum 27 (antibody, V domains shown, also called H-AF 13) VH: QVQLVQSGAEVKKPGASVKMSCKASGYTFTGYVMHWVRQAPGQGLEWIGFINPYNDDIQSNERFRGRVTMTRDTSISTAYMELSRLRSDDTAVYYCARGAGYNFDGAYRFFDFWGQGTMVTVSS VL: DIVMTQSPLSLPVTPGEPASISCRSSQRLVHSNGNTYLHWYLQKPGQSPRLLIYRVSNRFPGVPDRFSGSGSGTDFTLKISRVEAEDVGVYYCSQSTHVPYTFGQGTKLEIK
no binding | Jovi Hum 17 (antibody, V domains shown, also called H-AF 3) VH: QVQLVQSGAEVKKPGASVKVSCKASGYTFTGYVMHWVRQAPGQGLEWMGFINPYNDDIQSNERFRGRVTMTSDTSISTAYMELSRLRSDDTAVYYCARGAGYNFDGAYRFFDFWGQGTMVTVSS VL: DIVMTQSPLSLPVTPGEPASISCRSSQRLVHSNGNTYLHWYLQKPGQSPRLLIYRVSNRFPGVPDRFSGSGSGTDFTLKISRVEAEDVGVYYCSQSTHVPYTFGQGTKLEIK
no binding | Jovi Hum 18 (antibody, V domains shown, also called H-AF 4) VH: QVQLVQSGAEVKKPGASVKVSCKASGYTFTGYVMHWVRQAPGQGLEWMGFINPYNDDIQSNERFRGRVTMTSDKSISTAYMELSRLRSDDTAVYYCARGAGYNFDGAYRFFDFWGQGTMVTVSS VL: DIVMTQSPLSLPVTPGEPASISCRSSQRLVHSNGNTYLHWYLQKPGQSPRLLIYRVSNRFPGVPDRFSGSGSGTDFTLKISRVEAEDVGVYYCSQSTHVPYTFGQGTKLEIK
